Laboratory results: patent US20140363844

How the values were obtained:
[1] = target: T1, Presegetalin D1[14,31]P20Q
T1 chain: GLSFAFQAKDAENASSPV

Presegetalin L1[14,32] = target: T2, Presegetalin L1[14,32]
T2 chain: GLPGWPFQAKDVENASAPV

[2] = target: T3, Presegetalin A1[14,32] ins 16A17
T3 chain: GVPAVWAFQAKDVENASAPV

[3] = target: T4, Presegetalin A1[14,32]S29A
T4 chain: GVPVWAFQAKDVENAAAPV

[4] = target: T5, Presegetalin A1[14,32]F20A
T5 chain: GVPVWAAQAKDVENASAPV

Presegetalin A1[14,19] = target: T6, Presegetalin A1[14,19]
T6 chain: GVPVWA

Presegetalin F1[14,38] = target: T7, Presegetalin F1[14,38]
T7 chain: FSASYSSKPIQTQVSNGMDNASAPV

[5] = target: T8, Presegetalin A1[14,32]A19V
T8 chain: GVPVWVFQAKDVENASAPV

[6] = target: T9, Dianthus Precursor A[14,33]
T9 chain: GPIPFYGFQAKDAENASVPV

Presegetalin D1[14,31] = target: T10, Presegetalin D1[14,31]
T10 chain: GLSFAFPAKDAENASSPV

Presegetalin B1[14,31] = target: T11, Presegetalin B1[14,31]
T11 chain: GVAWAFQAKDVENASAPV

[7] = target: T12, Presegetalin A1[14,32]D24A
T12 chain: GVPVWAFQAKAVENASAPV

[8] = target: T13, Presegetalin A1[14,32]V25A
T13 chain: GVPVWAFQAKDAENASAPV

Presegetalin A1[14,24] = target: T14, Presegetalin A1[14,24]
T14 chain: GVPVWAFQAKD

Presegetalin J1[14,36] = target: T15, Presegetalin J1[14,36]
T15 chain: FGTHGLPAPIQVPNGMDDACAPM

[9] = target: T16, Presegetalin A1[14,32]A30V
T16 chain: GVPVWAFQAKDVENASVPV

[10] = target: T17, Presegetalin A1[14,32]A28V
T17 chain: GVPVWAFQAKDVENVSAPV

Presegetalin A1[14,20] = target: T18, Presegetalin A1[14,20]
T18 chain: GVPVWAF

Presegetalin A1[14,32] = target: T19, Presegetalin A1[14,32]
T19 chain: GVPVWAFQAKDVENASAPV

[11] = target: T20, Presegetalin A1[14,32]V15A
T20 chain: GAPVWAFQAKDVENASAPV

[12] = target: T21, Presegetalin A1[14,32]A22V
T21 chain: GVPVWAFQVKDVENASAPV

[13] = target: T22, Presegetalin A1[14,32]Q21A
T22 chain: GVPVWAFAAKDVENASAPV

[14] = target: T23, Presegetalin A1[14,32] ins 16AAA17
T23 chain: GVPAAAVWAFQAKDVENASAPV

[15] = target: T24, Presegetalin A1[14,32]G14A
T24 chain: AVPVWAFQAKDVENASAPV

[16] = target: T25, Presegetalin A1[14,32] P16p W18A
T25 chain: GVPVAAFQAKDVENASAPV

[17] = target: T26, Presegetalin A1[14,32] P16p W18a
T26 chain: GVPVAAFQAKDVENASAPV

[18] = target: T27, Presegetalin A1[14,32]A19a
T27 chain: GVPVWAFQAKDVENASAPV

[19] = target: T28, Presegetalin A1[14,32]W18w
T28 chain: GVPVWAFQAKDVENASAPV

Presegetalin G1[14,31] = target: T29, Presegetalin G1[14,31]
T29 chain: GVKYAFQPKDSENASAPV

Presegetalin A1[14,28] = target: T30, Presegetalin A1[14,28]
T30 chain: GVPVWAFQAKDVENA

Presegetalin A1[14,30] = target: T31, Presegetalin A1[14,30]
T31 chain: GVPVWAFQAKDVENAPV

[20] = target: T32, Presegetalin A1[14,32]P16p
T32 chain: GVPVWAFQAKDVENASAPV

[21] = target: T33, Presegetalin A1[14,32]V17v
T33 chain: GVPVWAFQAKDVENASAPV

[22] = target: T34, Dianthus Precursor B[14,32]
T34 chain: GYKDCCVQAKDLENAAVPV

B1: Saponaria vaccaria PCY1 (recombinant, N-terminal His6-tag, expressed in E. coli from pCB008) (protein)
chain: MATSGFSKPLHYPPVRRDETVVDDYFGVKVADPYRWLEDPNSEETKEFVDNQEKLANSVLEECELIDKFKQKIIDFVNFPRCGVPFRRANKYFHFYNSGLQAQNVFQMQDDLDGKPEVLYDPNLREGGRSGLSLYSVSEDAKYFAFGIHSGLTEWVTIKILKTEDRSYLPDTLEWVKFSPAIWTHDNKGFFYCPYPPLKEGEDHMTRSAVNQEARYHFLGTDQSEDILLWRDLENPAHHLKCQITDDGKYFLLYILDGCDDANKVYCLDLTKLPNGLESFRGREDSAPFMKLIDSFDASYTAIANDGSVFTFQTNKDAPRKKLVRVDLNNPSVWTDLVPESKKDLLESAHAVNENQLILRYLSDVKHVLEIRDLESGALQHRLPIDIGSVDGITARRRDSVVFFKFTSILTPGIVYQCDLKNDPTQLKIFRESVVPDFDRSEFEVKQVFVPSKDGTKIPIFIAARKGISLDGSHPCEMHGYGGFGINMMPTFSASRIVFLKHLGGVFCLANIRGGGEYGEEWHKAGFRDKKQNVFDDFISAAEYLISSGYTKARRVAIEGGSNGGLLVAACINQRPDLFGCAEANCGVMDMLRFHKFTLGYLWTGDYGCSDKEEEFKWLIKYSPIHNVRRPWEQPGNEETQYPATMILTADHDDRVVPLHSFKLLATMQHVLCTSLEDSPQKNPIIARIQRKAAHYGRATMTQIAEVADRYGFMAKALEAPWID
CP (cyclic peptide product detected by LC/MS) [1]: + | LP (linear peptide product detected by LC/MS) [1]: - | cyclic peptide product (LC/MS) [1]: resulted in a 5 amino acid cyclic peptide product (cyclo(GLSFA); SEQ ID NO: 77), and the substituted glutamine was not part of the final cyclic peptide | CP (cyclic peptide product detected by LC/MS) (Presegetalin L1[14,32]): + | LP (linear peptide product detected by LC/MS) (Presegetalin L1[14,32]): - | CP (cyclic peptide product detected by LC/MS) [2]: + | LP (linear peptide product detected by LC/MS) [2]: + | CP (cyclic peptide product detected by LC/MS) [3]: + | LP (linear peptide product detected by LC/MS) [3]: + | linear segetalin A production relative to WT substrate [3]: showed a relative increase in production of linear segetalin A | segetalin A production relative to WT substrate [3]: yielded a 30% increase in segetalin A production relative to wild type presegetalin A1[14,32] | CP (cyclic peptide product detected by LC/MS) [4]: + | LP (linear peptide product detected by LC/MS) [4]: + | linear segetalin A production relative to WT substrate [4]: a relative increase in production of linear segetalin A from all mutant substrates except with No. 13 and No. 14 | segetalin A production relative to WT substrate [4]: segetalin A production was found to be ≧42 times lower than the WT substrate | CP (cyclic peptide product detected by LC/MS) (Presegetalin A1[14,19]): - | CP (cyclic peptide product detected by LC/MS) (Presegetalin F1[14,38]): + | LP (linear peptide product detected by LC/MS) (Presegetalin F1[14,38]): - | CP (cyclic peptide product detected by LC/MS) [5]: - | LP (linear peptide product detected by LC/MS) [5]: - | CP (cyclic peptide product detected by LC/MS) [6]: + | LP (linear peptide product detected by LC/MS) [6]: - | cyclic peptide product (LC/MS, MS/MS) [6]: there was a small amount of cyclic peptide production from No. 43 | CP (cyclic peptide product detected by LC/MS) (Presegetalin D1[14,31]): + | LP (linear peptide product detected by LC/MS) (Presegetalin D1[14,31]): + | CP (cyclic peptide product detected by LC/MS) (Presegetalin B1[14,31]): + | LP (linear peptide product detected by LC/MS) (Presegetalin B1[14,31]): - | CP (cyclic peptide product detected by LC/MS) [7]: + | LP (linear peptide product detected by LC/MS) [7]: + | linear segetalin A production relative to WT substrate [7]: showed a relative increase in production of linear segetalin A | segetalin A production relative to WT substrate [7]: segetalin A production was found to be ≧42 times lower than the WT substrate | CP (cyclic peptide product detected by LC/MS) [8]: + | LP (linear peptide product detected by LC/MS) [8]: + | linear segetalin A production relative to WT substrate [8]: showed a relative increase in production of linear segetalin A | segetalin A production relative to WT substrate [8]: substitutions at positions 25, 26 and 29 (No. 18, 19 and 22) yielded relatively higher amounts of segetalin A than that produced from WT substrate | CP (cyclic peptide product detected by LC/MS) (Presegetalin A1[14,24]): - | LP (linear peptide product detected by LC/MS) (Presegetalin A1[14,24]): + | linear peptide formation (LC/MS, MS/MS) (Presegetalin A1[14,24]): showed linear peptide formation almost equivalent to the linear peptide formed from the WT substrate (No. 1) | CP (cyclic peptide product detected by LC/MS) (Presegetalin J1[14,36]): + | LP (linear peptide product detected by LC/MS) (Presegetalin J1[14,36]): - | CP (cyclic peptide product detected by LC/MS) [9]: + | LP (linear peptide product detected by LC/MS) [9]: + | linear segetalin A production relative to WT substrate [9]: showed a relative increase in production of linear segetalin A | CP (cyclic peptide product detected by LC/MS) [10]: + | LP (linear peptide product detected by LC/MS) [10]: + | linear segetalin A production relative to WT substrate [10]: showed a relative increase in production of linear segetalin A | segetalin A production relative to WT substrate [10]: positions were found to be sensitive to substitution ... position 20, 21, 23, 24, 27, 28 and 31 | CP (cyclic peptide product detected by LC/MS) (Presegetalin A1[14,20]): - | LP (linear peptide product detected by LC/MS) (Presegetalin A1[14,20]): - | CP (cyclic peptide product detected by LC/MS) (Presegetalin A1[14,32]): + | LP (linear peptide product detected by LC/MS) (Presegetalin A1[14,32]): + | PCY1 activity (total amount of segetalin A produced) (Presegetalin A1[14,32]): 3 nmol/mg of protein/min | formation of segetalin A and linear segetalin A (LC/MS) (Presegetalin A1[14,32]): purified PCY1 showed the formation of segetalin A and linear segetalin A in the presence of presegetalin A1[14,32] | CP (cyclic peptide product detected by LC/MS) [11]: + | LP (linear peptide product detected by LC/MS) [11]: + | CP (cyclic peptide product detected by LC/MS) [12]: + | LP (linear peptide product detected by LC/MS) [12]: + | linear segetalin A production relative to WT substrate [12]: showed a relative increase in production of linear segetalin A | CP (cyclic peptide product detected by LC/MS) [13]: + | LP (linear peptide product detected by LC/MS) [13]: + | linear segetalin A production relative to WT substrate [13]: a relative increase in production of linear segetalin A from all mutant substrates except with No. 13 and No. 14 | segetalin A production relative to WT substrate [13]: positions were found to be sensitive to substitution ... position 20, 21, 23, 24, 27, 28 and 31 | CP (cyclic peptide product detected by LC/MS) [14]: + | LP (linear peptide product detected by LC/MS) [14]: + | CP (cyclic peptide product detected by LC/MS) [15]: + | LP (linear peptide product detected by LC/MS) [15]: + | linear peptide product in LC/MS [15]: the highest amount of linear peptide product was detected with No. 7 | relative intensity of cyclic peptide product in LC/MS [15]: makes less product (cyclic peptide) with the substitution of glycine to alanine at the first position in segetalin A (No. 7) than with No. 8 to 11 | CP (cyclic peptide product detected by LC/MS) [16]: + | LP (linear peptide product detected by LC/MS) [16]: - | CP (cyclic peptide product detected by LC/MS) [17]: + | LP (linear peptide product detected by LC/MS) [17]: - | CP (cyclic peptide product detected by LC/MS) [18]: - | LP (linear peptide product detected by LC/MS) [18]: - | CP (cyclic peptide product detected by LC/MS) [19]: + | LP (linear peptide product detected by LC/MS) [19]: + | conversion to cyclic peptide (LC/MS) [19]: the W18w mutant of presegetalin A1 was apparently relatively weakly converted to cyclic peptide | CP (cyclic peptide product detected by LC/MS) (Presegetalin G1[14,31]): + | LP (linear peptide product detected by LC/MS) (Presegetalin G1[14,31]): - | CP (cyclic peptide product detected by LC/MS) (Presegetalin A1[14,28]): - | LP (linear peptide product detected by LC/MS) (Presegetalin A1[14,28]): + | linear peptide formation (LC/MS, MS/MS) (Presegetalin A1[14,28]): showed linear peptide formation almost equivalent to the linear peptide formed from the WT substrate (No. 1) | CP (cyclic peptide product detected by LC/MS) (Presegetalin A1[14,30]): - | LP (linear peptide product detected by LC/MS) (Presegetalin A1[14,30]): + | linear peptide formation (LC/MS, MS/MS) (Presegetalin A1[14,30]): showed linear peptide formation almost equivalent to the linear peptide formed from the WT substrate (No. 1) | CP (cyclic peptide product detected by LC/MS) [20]: + | LP (linear peptide product detected by LC/MS) [20]: - | CP (cyclic peptide product detected by LC/MS) [21]: + | LP (linear peptide product detected by LC/MS) [21]: - | CP (cyclic peptide product detected by LC/MS) [22]: - | LP (linear peptide product detected by LC/MS) [22]: -
